Experimental data as given in patent US20260125455A1 (CLEVELAND CLINIC FOUNDATION, published 2026).
Read-outs that look alike come from different tables or passages of the source.

How the values were obtained:
[1] = biological target: T1, human complement protein C6 (human, UniProt P13671 22-934); assay: BLI (Octet RED384), antibody on Protein G biosensors, C6 0.16-10 nM, 1:1 fit, experiment 1
T1 construct: also called human C6; C6 antigen
Protocol: (§1) The binding of the purified chimeric molecules, MoC601 HuG4K and MoC601 HuG1KFab, was also confirmed by ELISA, where the anti-human IgG (Fab-specific) secondary reagent was used. The control mouse antibody bound as previously (EC₅₀ 0.11 nM). The EC₅₀ for purified MoC601 HuG4K (0.27 nM) was similar to that obtained for the MoC601 HuG4K supernatant sample above. […] The EC₅₀ value for the Fab molecule (0.48 nM) was higher than for the antibody, which would be expected since the Fab is unable to bind bivalently to the antigen on the well. A C6-binding assay was also set up on the Octet RED384 instrument. […] However, MoC601 MoG1K could be stably loaded onto anti-mouse Fc (AMC) biosensors. Concentrations of the mouse and chimeric antibodies were adjusted to give similar levels of loading on to the AMC and
Protein G biosensors respectively in subsequent experiments. There was no non-specific binding of C6 protein to unloaded sensors or sensors loaded with an isotype control antibody. A full kinetic experiment was run for purified MoC601 MoG1K and MoC601 HuG4K antibodies using seven concentrations of C6 (0.16-10 nM) and association and dissociation steps of 20 and 15 minutes respectively. The mouse and chimeric datasets were processed by subtracting the no antigen controls and the data were fitted to a 1:1 binding model. […]

[2] = biological target: T1, human complement protein C6; assay: ELISA, C6-coated wells, purified antibody
[3] = biological target: T2, human complement protein C5 (human, UniProt P01031 19-673; P01031 678-1676); assay: ELISA, C5-coated wells
T2 sequence (P01031 19-673 limits assumed, chain 1 of 2): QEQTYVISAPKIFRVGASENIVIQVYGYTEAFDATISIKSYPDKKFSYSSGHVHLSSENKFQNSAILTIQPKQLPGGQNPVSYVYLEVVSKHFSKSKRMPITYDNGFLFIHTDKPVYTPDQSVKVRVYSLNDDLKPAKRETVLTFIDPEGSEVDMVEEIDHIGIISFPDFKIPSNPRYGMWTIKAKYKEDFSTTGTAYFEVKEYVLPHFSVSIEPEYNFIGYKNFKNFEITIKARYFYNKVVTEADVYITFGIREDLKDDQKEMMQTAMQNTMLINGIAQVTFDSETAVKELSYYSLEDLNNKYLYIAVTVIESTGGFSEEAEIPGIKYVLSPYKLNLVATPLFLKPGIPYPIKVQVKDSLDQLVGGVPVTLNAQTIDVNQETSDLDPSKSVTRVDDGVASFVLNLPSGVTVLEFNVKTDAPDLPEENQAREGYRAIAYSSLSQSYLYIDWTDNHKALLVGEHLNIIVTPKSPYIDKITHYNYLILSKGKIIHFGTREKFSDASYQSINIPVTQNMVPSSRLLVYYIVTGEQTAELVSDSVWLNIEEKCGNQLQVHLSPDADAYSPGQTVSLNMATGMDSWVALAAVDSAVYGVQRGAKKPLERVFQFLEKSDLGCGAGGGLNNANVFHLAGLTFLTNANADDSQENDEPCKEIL
T2 sequence (P01031 678-1676 limits assumed, chain 2 of 2): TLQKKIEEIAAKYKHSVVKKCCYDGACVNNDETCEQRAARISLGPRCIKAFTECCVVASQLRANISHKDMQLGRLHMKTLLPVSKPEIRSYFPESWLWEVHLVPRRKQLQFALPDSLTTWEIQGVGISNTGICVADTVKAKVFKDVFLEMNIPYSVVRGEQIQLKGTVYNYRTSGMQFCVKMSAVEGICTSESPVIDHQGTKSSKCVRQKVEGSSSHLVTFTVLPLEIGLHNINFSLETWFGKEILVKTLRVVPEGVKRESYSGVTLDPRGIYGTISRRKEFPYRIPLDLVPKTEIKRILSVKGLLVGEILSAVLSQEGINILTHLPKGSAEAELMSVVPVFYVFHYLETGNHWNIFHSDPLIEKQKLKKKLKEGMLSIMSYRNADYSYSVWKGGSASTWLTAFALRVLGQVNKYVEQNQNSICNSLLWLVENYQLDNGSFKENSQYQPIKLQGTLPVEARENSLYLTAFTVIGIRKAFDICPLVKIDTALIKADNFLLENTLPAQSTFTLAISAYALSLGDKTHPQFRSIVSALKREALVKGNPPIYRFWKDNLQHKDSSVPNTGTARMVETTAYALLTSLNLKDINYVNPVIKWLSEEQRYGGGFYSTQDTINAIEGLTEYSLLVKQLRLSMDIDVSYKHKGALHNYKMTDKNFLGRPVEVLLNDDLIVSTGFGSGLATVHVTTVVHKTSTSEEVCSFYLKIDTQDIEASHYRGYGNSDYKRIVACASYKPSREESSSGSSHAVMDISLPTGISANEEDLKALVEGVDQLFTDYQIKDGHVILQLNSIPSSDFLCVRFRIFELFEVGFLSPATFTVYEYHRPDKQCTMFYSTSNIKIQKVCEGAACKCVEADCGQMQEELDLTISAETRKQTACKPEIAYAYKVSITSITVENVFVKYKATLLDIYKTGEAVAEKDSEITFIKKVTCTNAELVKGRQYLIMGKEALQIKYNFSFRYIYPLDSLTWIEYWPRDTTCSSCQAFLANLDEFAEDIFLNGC

[4] = biological target: T1, human complement protein C6; assay: BLI (Octet), antibody on Protein G biosensors, 1:1 fit, experiment 1
[5] = biological target: T1, human complement protein C6; assay: ELISA, expression supernatant, anti-human IgG (Fab-specific) detection
Protocol: (§2) The chimeric molecules, MoC601 HuG4K and MoC601 HuG1KFab, were tested for C6 binding in the form of expression supernatants. In this experiment, the human molecules were detected with an HRP-conjugated goat anti-human kappa chain reagent, which gave relative low signals. However, the binding of both chimeric molecules to C6 was confirmed. The EC₅₀ value for MoC601 HuG4K (0.43 nM) was higher than that of the mouse antibody (0.07 nM), though this was lower than in previous experiments. A further experiment was performed to find a more suitable anti-human antibody detection reagent. MoC601 HuG4K from expression supernatant was detected with three different secondary antibodies. Both anti-human IgG Fc-specific and Fab-specific detection gave higher signals than the anti-kappa chain reagent but the Fc-specific detection yielded a very low EC₅₀ (0.03 nM).

[6] = biological target: T1, human complement protein C6; assay: ELISA, expression supernatant, anti-human IgG Fc-specific detection
Protocol: as §2

[7] = biological target: T1, human complement protein C6; assay: ELISA, purified protein, anti-human IgG (Fab-specific) detection
Protocol: as §1, with “AMC and […]” for “AMC and”

[8] = biological target: T2, human complement protein C5; assay: ELISA, C5-coated wells; remark: listed apart in the source
Protocol: The 20 purified antibodies were tested by ELISA for their abilities to bind human complement proteins C5, C5b6 and C6. The antibodies were divided into two sets for this analysis. MoC601 HuG4K and HuG4K isotype controls were included alongside each set, as was C601HFKC4 HuG4K (aka 3713) expression supernatant from the original transfection as an additional positive control. In addition, three humanized antibodies (C601HFKC4 HuG4K, C601HPKI HuG4K and C601HPKC4 HuG4K) were included within both sets to allow better comparison between the plates. The antibodies all show specificity for C6 with no detectable binding to C5. All humanized antibodies bind to C6 and to C6 as part of the C5b6 complex. The lower plateaus of the C5b6 complex binding curves are explained by less C6 protein being available for binding when wells are coated with C5b6 complex as opposed to C6 alone. […] The EC₅₀ values are included in the figure but slightly different plateau levels observed for the antibodies are influencing the apparent EC₅₀ values. However, it was noted that the EC₅₀ values tended to be lower on the plates for the second set of antibodies. For this reason, a subset of the 20 antibodies was tested in a further ELISA for binding to C6 and C5b6 complex.
Binding ELISAs used Nunc Maxisorp 384-well plates, wells coated with C6, C5b,6 complex or C5 (Complement Technology Inc, TX) and goat anti-human IgG (Fab specific) peroxidase secondary antibodies (Sigma-Aldrich, A0293) for detection. For the thermal stability assay, IgG supernatants were diluted to their EC₈₀ concentration, incubated at different temperatures for 10 min and C6 binding measured by ELISA with the binding signal plotted against temperature. Kinetics of C6 binding were measured by capturing antibodies from supernatant samples using Protein G biosensors and performing a 20 min association step with 2.5 nM C6 and a 20 min dissociation step using the Octet RED96. Precise kinetic measurements were obtained by surface plasmon resonance (Biacore 8K, Cytiva). The IgG were captured on a protein G sensor chip. Binding of C6 measured using a three-fold concentration series of C6 from 0.03 nM-25 nM and data were fitted using a 1:1 model in two independent experiments.

[9] = biological target: T1, human complement protein C6; assay: ELISA, C6-coated wells, large-scale purified antibody

T1 sequence (P13671 22-934 limits assumed): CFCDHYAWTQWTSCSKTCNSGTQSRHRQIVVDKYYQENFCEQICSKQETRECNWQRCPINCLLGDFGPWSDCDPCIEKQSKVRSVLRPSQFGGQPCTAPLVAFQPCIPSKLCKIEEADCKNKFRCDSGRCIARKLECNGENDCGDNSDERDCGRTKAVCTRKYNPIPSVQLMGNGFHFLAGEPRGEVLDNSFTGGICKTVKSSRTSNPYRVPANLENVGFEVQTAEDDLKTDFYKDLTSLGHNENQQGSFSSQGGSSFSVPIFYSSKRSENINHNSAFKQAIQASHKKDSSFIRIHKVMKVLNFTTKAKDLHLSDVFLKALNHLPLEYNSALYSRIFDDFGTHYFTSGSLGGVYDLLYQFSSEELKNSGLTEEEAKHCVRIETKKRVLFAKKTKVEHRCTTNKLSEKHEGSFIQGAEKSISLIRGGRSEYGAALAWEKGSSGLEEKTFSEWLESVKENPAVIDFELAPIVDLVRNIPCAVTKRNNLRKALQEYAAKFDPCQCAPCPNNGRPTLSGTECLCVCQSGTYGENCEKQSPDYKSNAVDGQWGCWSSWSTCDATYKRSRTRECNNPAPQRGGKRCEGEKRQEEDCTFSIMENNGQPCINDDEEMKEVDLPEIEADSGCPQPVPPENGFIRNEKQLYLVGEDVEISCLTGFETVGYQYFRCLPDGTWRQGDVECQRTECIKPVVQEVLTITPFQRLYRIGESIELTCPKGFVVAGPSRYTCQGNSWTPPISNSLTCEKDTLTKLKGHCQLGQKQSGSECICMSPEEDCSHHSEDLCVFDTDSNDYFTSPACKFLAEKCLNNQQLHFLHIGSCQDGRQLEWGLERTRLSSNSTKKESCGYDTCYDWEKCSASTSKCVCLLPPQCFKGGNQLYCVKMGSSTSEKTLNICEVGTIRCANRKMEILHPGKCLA

Kd [1] [pM] | kon [1] [M⁻¹ s⁻¹] | EC50 [2] [pM] | binding result [3] | Kd [4] [pM] | koff [4] [s⁻¹] | kon [4] [M⁻¹ s⁻¹] | EC50 [5] [pM] | EC50 [6] [pM] | EC50 [7] [pM] | binding result [8] | EC50 [9] [pM] | Binder
360 | 690000 | 200 | no binding | 360 | 0.00025 | 690000 | 300 | 30 | 270 |  |  | MoC601 HuG4K (chimeric C601 antibody) (antibody, human IgG4 S228P, kappa, V domains shown, also called chimeric antibody; chimeric 1C9) VH: QVQLQQSGAELVKPGASVKISCKASGYAFSDYWMNWVKQRPGKGLEWIGQIYPGDDDTNYNGKFKGKATLTADKSSSTAYMQLSSLTSEDSAVYFCAREGYYGYTYVEYFDVWGTGTTVTVSS VL: QIVLTQSPAIMSVSPGEKVTLTCSASSSVSYMHWYQQKSGTSPKRWIYDTSKLASGVPARFSGSGSGTSYSLTISSMEAEDAATYYCQQWTSNPLTFGAGTKLELRR
 |  |  |  |  |  |  |  |  |  | no binding | 190 | C601HFKC4 HuG4K (antibody, human IgG4 S228P, kappa, also called 3713; clone 3713) heavy: not shown light: QIVLTQSPATLSLSPGERATLSCRASSSVSYLHWYQQKPGQSPRLWIYDTSKRATGIPARFSGSGSGTDYTLTISSLEPEDFAVYYCQQWTSNPLTFGQGTKLEIKRTVAAPSVFIFPPSDEQLKSGTASVVCLLNNFYPREAKVQWKVDNALQSGNSQESVTEQDSKDSTYSLSSTLTLSKADYEKHKVYACEVTHQGLSSPVTKSFNRGEC
